What all share (experiment): ITC
Experiment [1] concerns the target T1, Gcn4 101-134 (Saccharomyces cerevisiae, UniProt P03069).
T1 chain: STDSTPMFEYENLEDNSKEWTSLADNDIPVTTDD

Experiment [2] has as its target T2, Gcn4 101-134 (Saccharomyces cerevisiae, UniProt P03069).
T2 chain: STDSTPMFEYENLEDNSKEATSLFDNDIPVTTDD

Experiment [3] addresses T3, Gcn4 101-134 (Saccharomyces cerevisiae, UniProt P03069).
T3 chain: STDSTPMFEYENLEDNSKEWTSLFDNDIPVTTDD

B1: Gal11/Med15 158-238 (protein)
chain: QRRQLTPQQQQLVNQMKVAPIPKQLLQRIPNIPPNINTWQQVTALAQQKLLTPQDMEAAKEVYKIHQQLLFKARLQQQQAQ
Turning to B1, the Kd is 65 µM with Gcn4 101-134 [1], 56 µM with Gcn4 101-134 [2] and 10.1 µM with Gcn4 101-134 [3].

B2: Gal11/Med15 158-238 (protein)
chain: QRRQLTPQQQQLVNQMKVAPIPKQLLQRIPNIPPNINTWQQVTALAQQKLLTPQDAEAAKEVYKIHQQLLFKARLQQQQAQ
In the experiment with Gcn4 101-134 [3], B2 yielded a Kd of 76 µM. This lies in the double-digit micromolar range.

The record behind these values is publication PMC3246216 (2012).
